± gives the standard deviation of the averaged measurements.
System: Saccharomyces cerevisiae
Experiment: protein stability index of tFT-peptide fusion (C-terminal peptide) (PSI (0-1 scale)); higher = more stable (slower turnover)
Details: temperature: 30 C
Method: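 MPS profiling in S. cerevisiae of the yeast C-terminome library: the last 12 aa of each annotated ORF are fused to the C-terminus of a sfGFP-mCherry timer, after a GGGS linker. Cells are FACS-sorted into 8 mCherry/sfGFP bins and deep-sequenced. PSI runs from 0 (unstable) to 1 (stable); wild type and das1Δ backgrounds, two technical replicates each.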

[1] = genetic background: das1 deletion

Sequence	protein stability index [1]	protein stability index (genetic background: wild type)
IFLNDVYFNLMV [YPR126C C-terminal 12 aa]	0.728 ± 0.016	0.686 ± 0.012
IIRDFLIEKGFI [YNL320W C-terminal 12 aa]	0.731 ± 0.024	0.667 ± 0.009
DQIYWFNHFSNV [AIM2 C-terminal 12 aa]	0.7141 ± 0.0021	0.696 ± 0.027
SFCYVSACGRTQ [YFL021C-A C-terminal 12 aa]	0.677 ± 0.0097	0.709 ± 0.018
GELSVDEKKKIY [ERV29 C-terminal 12 aa]	0.6932 ± 0.00077	0.657 ± 0.041
DNFNSAPSYFSK [MIG3 C-terminal 12 aa]	0.6975 ± 0.0012	0.682 ± 0.052
RMDEENYEEEFC [UBP11 C-terminal 12 aa]	0.716 ± 0.02	0.707 ± 0.034
LLTYFRKHVKDT [SCC2 C-terminal 12 aa]	0.714 ± 0.043	0.572 ± 0.054
DLYTEEFLKEGK [PRP39 C-terminal 12 aa]	0.683 ± 0.035	0.6685 ± 0.0064
TYFSKQFLKKEL [LTP1 C-terminal 12 aa]	0.746 ± 0.017	0.742 ± 0.009
VDDSDGDETMQI [TDA1 C-terminal 12 aa]	0.70725 ± 0.00053	0.7369 ± 0.0011
EHCPGVNEDDHK [CMG1 C-terminal 12 aa]	0.703 ± 0.011	0.701 ± 0.026
KQNSSITQKNSS [EPL1 C-terminal 12 aa]	0.71115 ± 0.00071	0.697 ± 0.031
DNGRIIITGIPN [ECM5 C-terminal 12 aa]	0.681 ± 0.024	0.675 ± 0.033
SGSGNSSKSNCC [SEC4 C-terminal 12 aa]	0.691 ± 0.025	0.674 ± 0.018
EKKIATRGAFAC [MCO32 C-terminal 12 aa]	0.707 ± 0.01	0.7 ± 0.012
LMILGNFMPILN [ERT1 C-terminal 12 aa]	0.6909 ± 0.0037	0.5655 ± 0.0049
NKIANFVKNAKK [TRP1 C-terminal 12 aa]	0.708 ± 0.02	0.701 ± 0.029
CLFRYKQLPRRV [MCH2 C-terminal 12 aa]	0.69 ± 0.073	0.687 ± 0.029
ANHNNQRAGYFL [SIT4 C-terminal 12 aa]	0.699 ± 0.02	0.652 ± 0.015
ISLVFLWVSIEV [CSM4 C-terminal 12 aa]	0.157 ± 0.018	0.173 ± 0.011

Sequence	protein stability index [1]	protein stability index (genetic background: wild type)
KFFNYDGSEGVF [OSI1 C-terminal 12 aa]	0.7095 ± 0.0039	0.715 ± 0.022
ETDSESEVESIM [SYG1 C-terminal 12 aa]	0.697 ± 0.036	0.675 ± 0.025
IKKRKVQNRAMS [YOL038C-A C-terminal 12 aa]	0.701 ± 0.017	0.73 ± 0.0083
HAERERENMIYD [YGL108C C-terminal 12 aa]	0.7122 ± 0.0035	0.695 ± 0.029
KKRNWKRREASS [NRG2 C-terminal 12 aa]	0.698 ± 0.016	0.626 ± 0.044
VKQLEVSSGIKQ [HEM1 C-terminal 12 aa]	0.6929 ± 0.0017	0.675 ± 0.043
WVRLPTTSHGLD [SPO73 C-terminal 12 aa]	0.71917 ± 0.00042	0.733 ± 0.016
SKLGINSGLCTN [ESL1 C-terminal 12 aa]	0.683 ± 0.01	0.688 ± 0.03
GKLAEILKPVFQ [GRX2 C-terminal 12 aa]	0.706 ± 0.011	0.677 ± 0.0068
VLHSIISICRIF [VPS65 C-terminal 12 aa]	0.756 ± 0.014	0.641 ± 0.036
QAYIYIYIHIVN [EST2 C-terminal 12 aa]	0.195 ± 0.0094	0.0717 ± 0.017
TSNNIFGSDQKY [MNN14 C-terminal 12 aa]	0.694 ± 0.016	0.741 ± 0.037
VMAWTFGYALIG [EMC6 C-terminal 12 aa]	0.654 ± 0.015	0.452 ± 0.014
QSLLDSLAKLQK [NAB3 C-terminal 12 aa]	0.667 ± 0.009	0.678 ± 0.022
NYLVYHIEEENH [MNN9 C-terminal 12 aa]	0.673 ± 0.031	0.645 ± 0.052
MGISSNSFQGVN [KDX1 C-terminal 12 aa]	0.70379 ± 8.7e-05	0.6626 ± 0.0032
NAKKGSKIEEIE [PTC3 C-terminal 12 aa]	0.6731 ± 0.0047	0.6656 ± 0.0058
IRAAGGVVELIA [RPL28 C-terminal 12 aa]	0.658 ± 0.0023	0.652 ± 0.038
SSLPYDILPALL [YGL199C C-terminal 12 aa]	0.703 ± 0.004	0.6882 ± 0.0011
YKKMKEMRKKRR [FCF2 C-terminal 12 aa]	0.703 ± 0.022	0.71 ± 0.05
KLFESGQDSFDN [MRC1 C-terminal 12 aa]	0.7192 ± 0.0032	0.727 ± 0.022

Sequence	protein stability index [1]	protein stability index (genetic background: wild type)
KKKKSLFLFGKI [YOR019W C-terminal 12 aa]	0.702 ± 0.039	0.6688 ± 0.0015
DTTFTGCTKKIL [YGL102C C-terminal 12 aa]	0.698 ± 0.023	0.66 ± 0.019
AGTDKSQRCAIM [GIS4 C-terminal 12 aa]	0.758 ± 0.018	0.695 ± 0.056
FSYIRSKQMQQK [MNE1 C-terminal 12 aa]	0.746 ± 0.031	0.6666 ± 0.0065
ANTHSSLICSKP [YBR209W C-terminal 12 aa]	0.6854 ± 0.0039	0.701 ± 0.044
ALLILVLGWFYR [SCS2 C-terminal 12 aa]	0.405 ± 0.027	0.4 ± 0.0047
DVEVVCRQNNFV [YDR327W C-terminal 12 aa]	0.723 ± 0.0082	0.724 ± 0.025
EIKKIYQNEKKI [DPC7 C-terminal 12 aa]	0.726 ± 0.044	0.677 ± 0.029
HSNTLKRKIEQV [PUS4 C-terminal 12 aa]	0.7252 ± 0.0013	0.697 ± 0.012
TVRALNPFMKRV [SSD1 C-terminal 12 aa]	0.689 ± 0.046	0.656 ± 0.039
KKKYKFHQGLSI [SOL2 C-terminal 12 aa]	0.699 ± 0.028	0.695 ± 0.02
REDDDEPASLDF [PRI1 C-terminal 12 aa]	0.697 ± 0.0043	0.6533 ± 0.0064
VNADDEIENNVD [AMN1 C-terminal 12 aa]	0.674 ± 0.0091	0.669 ± 0.022
MLCTLTGYQNND [NUP192 C-terminal 12 aa]	0.7282 ± 0.0051	0.685 ± 0.017
FNNILTKEMQKI [CLD1 C-terminal 12 aa]	0.701 ± 0.031	0.717 ± 0.049
DPFLYSCSRVAF [YDL196W C-terminal 12 aa]	0.729 ± 0.038	0.702 ± 0.012
VFTRLYSTLWSY [YDR149C C-terminal 12 aa]	0.6867 ± 0.0054	0.145 ± 0.0086
LLLAGRKLSLDK [ARK1 C-terminal 12 aa]	0.694 ± 0.016	0.715 ± 0.023
GAGWSGFKKVFK [GYL1 C-terminal 12 aa]	0.692 ± 0.013	0.722 ± 0.042

From the supplement of paper PMC10724198
